Test [1] addresses T1, recombinant human TfR (2474-TR, R&D Systems), biotinylated (human, UniProt P02786 89-760, biotinylated with EZ-Link NHS-PEG4-Biotinylation Kit).
T1 construct: Bought protein; also called immobilized recombinant human TfR; biotinylated human TfR
The test is described as follows: SPR (Biacore), biotinylated human TfR captured on an SA chip, VHH injected, 1:1 dissociation fit, pH 5.5. As to the method: (§1) In brief, DNA was synthesized by Genscript (Piscataway, New Jersey, United States) and cloned into an E. coli compatible expression plasmid according to standard methods. E. coli TG1 bacteria were transformed with those plasmids and expressions induced. Crude extracts were prepared and analyzed for binding by flow cytometry on human TfR overexpressing cells. […] Next, off rates of these selected variants were determined on recombinant human TfR by surface plasmon resonance (Biacore, Marlborough, Massachusetts, United States). Biotinylated human TfR was captured on a streptavidin-coated SA sensor chip (Cytiva). Increasing concentrations of nanobodies were sequentially injected in a single cycle at a flow rate of 30 μL/min. The dissociation was monitored for around 20 min. A reference flow was used as a control for non-specific binding and refractive index changes. Several buffer blanks were used for double referencing. Off rates were derived after fitting the experimental data to the 1:1 binding model with the Biacore Evaluation Software.
A general note: In SPR one partner is held on a chip, and binding of the other changes the refractive index at the surface.

Test [2] addresses T1, recombinant human TfR (2474-TR, R&D …). The experiment in a line: SPR (Biacore), biotinylated human TfR captured on an SA chip, VHH injected, 1:1 dissociation fit, pH 7.4. The protocol: as §1
For test [3] the target is unchanged. The test is described as follows: SPR (Biacore), ratio of the off rates on human TfR at the two pH values; the printed number equals kd at pH 5.5 divided by kd at pH 7.4. The protocol:
as §1

T1 sequence (P02786 89-760 limits assumed): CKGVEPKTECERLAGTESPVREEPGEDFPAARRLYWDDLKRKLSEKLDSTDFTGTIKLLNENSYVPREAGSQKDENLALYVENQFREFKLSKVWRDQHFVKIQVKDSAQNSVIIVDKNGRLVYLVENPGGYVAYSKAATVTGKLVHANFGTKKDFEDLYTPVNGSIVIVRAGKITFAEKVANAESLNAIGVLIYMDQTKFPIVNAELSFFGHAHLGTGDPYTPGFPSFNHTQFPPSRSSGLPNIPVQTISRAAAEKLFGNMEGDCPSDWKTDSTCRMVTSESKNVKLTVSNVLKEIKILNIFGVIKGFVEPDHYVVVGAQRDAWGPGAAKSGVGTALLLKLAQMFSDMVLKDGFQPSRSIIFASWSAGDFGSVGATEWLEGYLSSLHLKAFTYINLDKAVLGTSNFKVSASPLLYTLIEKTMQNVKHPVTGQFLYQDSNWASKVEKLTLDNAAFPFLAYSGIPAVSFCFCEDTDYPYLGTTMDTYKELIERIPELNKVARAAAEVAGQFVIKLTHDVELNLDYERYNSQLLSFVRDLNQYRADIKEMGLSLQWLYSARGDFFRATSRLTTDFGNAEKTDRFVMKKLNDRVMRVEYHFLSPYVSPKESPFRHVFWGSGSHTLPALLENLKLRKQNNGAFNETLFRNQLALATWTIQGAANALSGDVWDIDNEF

B1: BBB00677 (VHH)
VHH: EVQLVESGGGSVQPGGSLRLSCTASGRTFNYAMGWFRQAPGKNREFVATIDWKDGSSYYLDSVRGRFTIERDDAKNTVYLQMNSLRPEDAAVYTCAVGDGDYCSTYTCAAEVEYDYWGQGTLVTVSS
notes: also called variant of BBB00533
Broadly, the koff is a measure of how fast the partners let go of each other. Consider B1, for which the koff in test [1] stood at 0.00946 s⁻¹; in test [2] it was 0.00545 s⁻¹. In addition, the “off-rate ratio kd pH5.5/kd pH7.4” value in test [3] stood at 1.74.

B2: BBB00697 (VHH)
VHH: EVQLVESGGGSVQPGGSLRLSCTASGRTHNYAMGWFRQAPGKNREFVATIDWKDGSSYYLDSVRGRFTIERDDAKNTVYLQMNSLRPEDAAVYTCAVGDGDYCSTYTCAAEVEYDYWGQGTLVTVSS
notes: also called histidine mutant of BBB00515
For B2, the off-rate constant (koff) in test [1] was 0.0107 s⁻¹; in test [2], 0.00596 s⁻¹. Moreover, the “off-rate ratio kd pH5.5/kd pH7.4” value in test [3] came to 1.79.

B3: BBB00695 (VHH)
VHH: EVQLVESGGGSVQPGGSLRLSCTASGHTFNYAMGWFRQAPGKNREFVATIDWKDGSSYYLDSVRGRFTIERDDAKNTVYLQMNSLRPEDAAVYTCAVGDGDYCSTYTCAAEVEYDYWGQGTLVTVSS
notes: Histidine mutant
On to B3, for which the koff was determined as 0.00874 s⁻¹ in test [1] and 0.00577 s⁻¹ in test [2]. Further, in test [3], the “off-rate ratio kd pH5.5/kd pH7.4” value was determined as 1.51.

B4: BBB00709 (VHH)
VHH: EVQLVESGGGSVQPGGSLRLSCTASGRTFNYAMGWFRQAPGKNREFVATIDWKDHSSYYLDSVRGRFTIERDDAKNTVYLQMNSLRPEDAAVYTCAVGDGDYCSTYTCAAEVEYDYWGQGTLVTVSS
notes: as for B2
With B4, the off-rate constant (koff) came out at 0.00937 s⁻¹ in test [1] and 0.00511 s⁻¹ in test [2]. For the same molecule, the “off-rate ratio kd pH5.5/kd pH7.4” value in test [3] amounted to 1.84.

B5: BBB00694 (VHH)
VHH: EVQLVESGGGSVQPGGSLRLSCTASHRTFNYAMGWFRQAPGKNREFVATIDWKDGSSYYLDSVRGRFTIERDDAKNTVYLQMNSLRPEDAAVYTCAVGDGDYCSTYTCAAEVEYDYWGQGTLVTVSS
notes: Histidine mutant
Consider B5, for which the off-rate (koff) is 0.00728 s⁻¹ in test [1] and 0.00538 s⁻¹ in test [2]. Also, in test [3], the “off-rate ratio kd pH5.5/kd pH7.4” value is 1.35.

B6: BBB00707 (VHH)
VHH: EVQLVESGGGSVQPGGSLRLSCTASGRTFNYAMGWFRQAPGKNREFVATIDWHDGSSYYLDSVRGRFTIERDDAKNTVYLQMNSLRPEDAAVYTCAVGDGDYCSTYTCAAEVEYDYWGQGTLVTVSS
notes: Histidine mutant
As for B6, the koff was 0.00632 s⁻¹ in test [1] and 0.00439 s⁻¹ in test [2]. Further, the “off-rate ratio kd pH5.5/kd pH7.4” value in test [3] turned out to be 1.44.

B7: BBB00704 (VHH)
VHH: EVQLVESGGGSVQPGGSLRLSCTASGRTFNYAMGWFRQAPGKNREFVATHDWKDGSSYYLDSVRGRFTIERDDAKNTVYLQMNSLRPEDAAVYTCAVGDGDYCSTYTCAAEVEYDYWGQGTLVTVSS
notes: as for B2
With B7, the off-rate (koff) in test [1] amounted to 0.00911 s⁻¹; in test [2] it was 0.00358 s⁻¹. For the same molecule, the “off-rate ratio kd pH5.5/kd pH7.4” value in test [3] was determined as 2.55.

B8: BBB00708 (VHH)
VHH: EVQLVESGGGSVQPGGSLRLSCTASGRTFNYAMGWFRQAPGKNREFVATIDWKHGSSYYLDSVRGRFTIERDDAKNTVYLQMNSLRPEDAAVYTCAVGDGDYCSTYTCAAEVEYDYWGQGTLVTVSS
notes: Histidine mutant
For B8, the off-rate (koff) in test [1] is 0.0086 s⁻¹; in test [2] it was 0.00547 s⁻¹. For the same molecule, the “off-rate ratio kd pH5.5/kd pH7.4” value in test [3] turned out to be 1.57.

B9: BBB00699 (VHH)
VHH: EVQLVESGGGSVQPGGSLRLSCTASGRTFNHAMGWFRQAPGKNREFVATIDWKDGSSYYLDSVRGRFTIERDDAKNTVYLQMNSLRPEDAAVYTCAVGDGDYCSTYTCAAEVEYDYWGQGTLVTVSS
notes: Histidine mutant
With B9, the off-rate constant (koff) in test [1] was 0.00858 s⁻¹; in test [2] it was 0.00524 s⁻¹. For the same molecule, the “off-rate ratio kd pH5.5/kd pH7.4” value in test [3] turned out to be 1.64.

B10: BBB00698 (VHH)
VHH: EVQLVESGGGSVQPGGSLRLSCTASGRTFHYAMGWFRQAPGKNREFVATIDWKDGSSYYLDSVRGRFTIERDDAKNTVYLQMNSLRPEDAAVYTCAVGDGDYCSTYTCAAEVEYDYWGQGTLVTVSS
notes: as for B2
With B10, the results for the off-rate constant (koff) in test [1] and in test [2] were 0.0109 s⁻¹ and 0.00506 s⁻¹, respectively. Besides, the “off-rate ratio kd pH5.5/kd pH7.4” value in test [3] was 2.15.
